The target in experiment [1] is H7 HA of A/Netherlands/219/2003, soluble trimer (Influenza A virus …, UniProt Q6VMK1, strain). As to the kind of experiment: ELISA.
Experiment [2] addresses H5 HA of A/Indonesia/5/2005 (Influenza A virus A/Indonesia/5/2005 …, UniProt A5A5L7, strain). Nature of the experiment: ELISA.

B1: rFluA-20 IgG (recombinant FluA-20 IgG) (antibody, V domains shown)
VH: QVQLEESGPGLVKPSETLSLTCSVSGVSVTSDIYYWTWIRQPPGKGLEWIGYIFYNGDTNYNPSLKSRVTMSIDTSKNEFSLRLTSVTAADTAVYFCARGTEDLGYCSSGSCPNHWGQGTLVTVSS
VL: DIVMTQSPSSLSASIGDRVTITCRPSQNIRSFLNWFQHKPGKAPKLLIYAASNLQSGVPSRFSGSGSGTEFTLTIRSLQPEDFATYYCQQSYNTPPTFGQGTKVEIK
As for B1, in experiment [1], the binding result was “binds”.

B2: rFluA-20 IgG Y49A (L) (antibody, V domains shown)
VH: QVQLEESGPGLVKPSETLSLTCSVSGVSVTSDIYYWTWIRQPPGKGLEWIGYIFYNGDTNYNPSLKSRVTMSIDTSKNEFSLRLTSVTAADTAVYFCARGTEDLGYCSSGSCPNHWGQGTLVTVSS
VL: DIVMTQSPSSLSASIGDRVTITCRPSQNIRSFLNWFQHKPGKAPKLLIAAASNLQSGVPSRFSGSGSGTEFTLTIRSLQPEDFATYYCQQSYNTPPTFGQGTKVEIK
With B2, the binding result in experiment [2] is reported as “no binding (tested: 10 μg/mL)”.

B3: rFluA-20 IgG D98A (H) (antibody, V domains shown)
VH: QVQLEESGPGLVKPSETLSLTCSVSGVSVTSDIYYWTWIRQPPGKGLEWIGYIFYNGDTNYNPSLKSRVTMSIDTSKNEFSLRLTSVTAADTAVYFCARGTEALGYCSSGSCPNHWGQGTLVTVSS
VL: DIVMTQSPSSLSASIGDRVTITCRPSQNIRSFLNWFQHKPGKAPKLLIYAASNLQSGVPSRFSGSGSGTEFTLTIRSLQPEDFATYYCQQSYNTPPTFGQGTKVEIK
For B3, the binding result in experiment [2] is recorded as “no binding (tested: 10 μg/mL)”.

Values taken from publication PMC6629437 (Cell, 2019).
